# Measured values taken from PMC3763426, “Genetic and structural validation of Aspergillus fumigatus N-acetylphosphoglucosamine mutase as an antifungal target” (Bioscience Reports, 2013).
# Key:
# [1] = target: T1, AfAGM1 (A. fumigatus N-acetylphosphoglucosamine mutase) (Aspergillus fumigatus, UniProt Q4WJF0, DEL85-101); assay: direct HPAEC-PAD enzyme assay, […] Glc-1P; type: biochemical
# T1 construct: gene AFUA_1G06210; deletion of VSSYGTFDGGMKGEFAD, residues 85–101 of XP_750370 (likely alternative splicing); GST tag cleaved; pSer69
# T1 sequence (Q4WJF0 entry or part of it DEL85-101): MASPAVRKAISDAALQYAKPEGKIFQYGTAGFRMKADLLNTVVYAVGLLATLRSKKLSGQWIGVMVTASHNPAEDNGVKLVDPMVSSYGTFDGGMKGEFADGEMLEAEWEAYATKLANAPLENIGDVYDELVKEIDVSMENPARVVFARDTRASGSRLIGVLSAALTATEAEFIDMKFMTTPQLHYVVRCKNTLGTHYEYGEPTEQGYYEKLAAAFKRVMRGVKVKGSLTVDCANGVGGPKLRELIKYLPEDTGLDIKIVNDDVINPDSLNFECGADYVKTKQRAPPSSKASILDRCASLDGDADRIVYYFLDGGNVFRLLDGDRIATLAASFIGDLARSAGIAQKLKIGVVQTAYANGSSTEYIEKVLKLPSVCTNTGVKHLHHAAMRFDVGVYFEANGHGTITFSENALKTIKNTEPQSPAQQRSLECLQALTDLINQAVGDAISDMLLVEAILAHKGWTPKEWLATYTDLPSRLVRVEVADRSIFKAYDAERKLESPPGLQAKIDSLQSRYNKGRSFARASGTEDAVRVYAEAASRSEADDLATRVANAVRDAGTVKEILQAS
# [2] = tested on: CC(=O)N[C@H]1C(O)O[C@H](COP(=O)(O)O)[C@@H](O)[C@@H]1O; assay: purified protein; details: Mg2+
# [3] = tested on: O=P(O)(O)O[C@H]1O[C@H](CO)[C@@H](O)[C@H](O)[C@H]1O; assay: purified protein; details: Mg2+
# [4] = target: T1, AfAGM1 (A. fumigatus N-acetylphosphoglucosamine mutase); assay: enzyme inhibition kinetics, Lineweaver–Burk plot; type: biochemical
compound,measurement,setting,value
"Cc1nc(/N=N/c2ccc(C(=O)O)cc2)c(COP(=O)(O)O)c(C=O)c1O [compound 4, tri-sodium 4-[(2z)-2-[4-formyl-6-metyl-5-oxo-3-(phosphonatooxymetyl)-pyridin-2-ylidene] hydrazinyl] benzoate]",IC50,[1],7.1 ± 0.2 µM
"NC(Cc1cc(O)c(O)cc1O)C(=O)O (racemic) [compound 3, 6-hydroxy-DL-DOPA]",IC50,[1],58 ± 4 µM
AfAGM1 (A. fumigatus N-acetylphosphoglucosamine mutase) (Aspergillus fumigatus Af293; DEL85-101),Km,[2],25 ± 8 µM
same,kcat,[2],0.21 s⁻¹
same,kcat/Km,[2],8400 M⁻¹ s⁻¹
same,Km,[3],1200 ± 100 µM
same,kcat,[3],37.6 s⁻¹
same,kcat/Km,[3],31300 M⁻¹ s⁻¹
"Nc1ccc(O)c2c1C(=O)c1c(O)ccc(N)c1C2=O [compound 1, 1,5-diamino-4,8-dihydroxyanthraquinone]",Ki,[4],300 ± 13 µM
